This note sets out measurements from the domain aggregation screens of Martell et al. (2025).

This series in a line: soluble fraction after stress (log2 fold change); higher = more stays soluble; pooled small domains, quantitative proteomics. The settings on record: stress: 50 degC. Summed up: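 Pooled custom libraries of small protein domains were each held under stress at 50°C. The read-out, high-throughput quantitative proteomics, tracked how much of each protein stayed soluble. This is reported as a base-two log fold change used to indicate aggregation propensity. Higher values mean more protein remains in solution.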

Consider “HMGTGVEQGKQYRTLKRDFDGASGIKVNGDFYRLRTSDTGMTELPAGTEVTFERFDGTTAVVHT”, for which the “soluble fraction (log2)” value is -0.0841.

In the case of “HMHDWDITTAAKPEKIFELFSDIPVLETGLKHGTVTLLIDHEPYEVTTFRVDGNYTDGRHPDSVAFT”, the “soluble fraction (log2)” value was -0.0484.

In the case of “HMIDNKIIRSLRQKRNMTLEELAKKANISVSYLSEIELGKKQPSLETINKLSQALNISREGLI”, the “soluble fraction (log2)” value was -0.0409.

As to “HMELPVNSIRVPDVVGLSLREAMQAMTDAGVPWQSVQAKGVGFVSRQSPEAGTVTQLRRVRLELKLF”, the “soluble fraction (log2)” value is -2.58.

On to “HMLDDDAGMIQAILRKAPGHYLPLHDKSDPASIQAQLGISKAQFKRAVGTLMKQGLIRQVKGDGLYLTQ”, for which the “soluble fraction (log2)” value was determined as 0.0324.

As for “HMVDVEMLTTVSDHIEAKLLQGILENHGIPSYSVDEESGEYMRVYMGYSIFGEKIYVRASDLLAAQGYL”, the “soluble fraction (log2)” value was -2.25.

Regarding “HMGLNLIGLKRSGFAPEEVKAMTRAYMYIFKSAEGNFESRLAKAHEKYKDDALIMEMVEFIDDALKG”, the “soluble fraction (log2)” value is -0.906.

With “HMHNLYAPTQKEVDHARRVVEAAEAAAREGLGVVSLNGKMVDGPVIDRARLVLSRAELSGIRE”, the “soluble fraction (log2)” value was found to be 0.072.

On to “HMAEVAFEEQNIEQISNLLLRIQAIFAELMTALDKEKGGEIADNLERLYVFFLEKLGDANVRKDPAP”, for which the “soluble fraction (log2)” value came to 0.00759.

Consider “HMKRLPFSFAKRFGVVVEDGEPPIVHHRDGASAETLLEVRRRLGQVFTLQRHDAEAFERLLTQAYQR”, for which the “soluble fraction (log2)” value was -0.383.

For the sequence “HMQMTKSEFLDALRRALNGNMAAASVDDNIRFYDSYFYTEETKGRSEAEILSELGDPRILARTLIDAAD”, the “soluble fraction (log2)” value turned out to be 0.0125.

As for “HMDRKEEIIIVTLKLASQIGLSNVSMEQIAKQVGIKKPSLYNHFKSKDEIIDAMYEYLREKSKN”, the “soluble fraction (log2)” value was -0.869.

“HMKDYTIDDIINSKVEHPLGGYQSRFKVGEYEVSVVGGRQTNHGDFIHTFELAIFDKNNNFLRNLTPVTID”: the “soluble fraction (log2)” value was -0.0394.

As for “HMEYNLTLEELNRDLYIRGEIWNVGDVVKTTDGDEGTIIRKGTNYVVFEDLRRVWLHNLEEVK”, the “soluble fraction (log2)” value is -1.85.

For the sequence “HMAEVHVDGVTYQFSNPEQAVKFARKIAKELGLKVEVHGETVHVK”, the “soluble fraction (log2)” value was -0.156.

Consider “HMTPAPHESLTDREMEVLKLLAQGLSNQEIADKLFIGVKTVKYHITNIFSKLGVEDRTQAAIYAHKQGLA”, for which the “soluble fraction (log2)” value worked out at 0.0163.

“HMSLNQRIKEARIKMGYTQEQLGNLIGVAKTTISGYEKNREPDAATIGLIIDALKVDANFLFQ”: the “soluble fraction (log2)” value was -1.62.

As to “HMSLSVEESYKLLDISPSAGDEEITKKFRLLALKYHPDKNRSKIEWANNIMSRLNQAYSVIMSSRFESNAE”, the “soluble fraction (log2)” value is -0.476.

In the case of “HMNGARALAGAIAEAIRKQVYRVNERLPAERELASHYDVSRGTLRSALALLEQEGLVTRKVGSGTFVMPP”, the “soluble fraction (log2)” value was -0.438.

Regarding “HMGVPTEQQSLIGKSGIAATDLRPSGKVEIDGKRYDAVSNYAGFIAKGTPISVVRYETGQIYVE”, the “soluble fraction (log2)” value was found to be 0.0415.

As for “HMEITSSNELKKMISNLINSENKNNPISDSNIVEKLKENDFLVARRTVAKYRKLLGIKNVNQRKE”, the “soluble fraction (log2)” value is -0.112.

Regarding “HMEKEFLFNGGKVVMNYEADRIQIMHDTKPGQDVITLMKKNGFKWSPFNKAWQRQITANAIYTTKHLINQ”, the “soluble fraction (log2)” value is -1.5.

For the sequence “HMSTVAETVYNEIRDDILYGELQPGVKLKLEALRERYSVGVNTLREVLNRLVASGFVFVEGQKGFRVV”, the “soluble fraction (log2)” value is 0.0966.

As to “HMAAVSSHAVKQRIRSLIQAEDPASPLSDEALRLALSALGVEVSRRAVAKYRTSMDIPASSQRKK”, the “soluble fraction (log2)” value was -0.252.

For “HMDPTLFRLNILEGLGLEKKNLTSEEQEQLRFLYEHFSMKEILMTIDYIKKLNLEKSIVNLYRLMQHP”, the “soluble fraction (log2)” value is -0.0621.

Turning to “HMRGDQLREHLLWTAKDVFLELGFERASMDAVAARAETSKRSLYAHFESKEKLFLAVIDLVRG”, the “soluble fraction (log2)” value was -3.67.

Turning to “HMAEAAVELSQQILARLLEAGGSLPLSDKSSPEDIHRLFGVSKRTFKKAIGGLYKKGLILIHPERIELP”, the “soluble fraction (log2)” value was -0.588.

Consider “HMLSAGTTEQRLAMLQYQWEKQSETYSALGPNNGVVTLGQIRNTMAKIAELAGFKDAAQFWMPVPMDYDV”, for which the “soluble fraction (log2)” value was -0.323.

“HMVVPELNLAQQDVLRALRQRGRATADHLSVDTHRPVSEVMGILLGLEIAEVLYRVEGGWFVPKTAR”: the “soluble fraction (log2)” value is -0.653.

As for “HMVDIGQSIRVELIREGKDSHQAVGYLRDGSMVVVNHGRKLIGSTVEVEITSIVPSSAGKVIFAEYLE”, the “soluble fraction (log2)” value is -0.378.

For “HMLNWINSDVLERFNSLTKEKQKAIVADTETRLNGLSQARFKVAKSSSNERLIAEFAIEINEAIMRAAAL”, the “soluble fraction (log2)” value was -1.49.

As for “HMSAHDLQVVLRWIGTDEPMTDQRYRITTEDGRTFEGRTDDAGLTERVASTIPFGRYSIEALD”, the “soluble fraction (log2)” value is -0.441.

In the case of “HMKEPQLGPVRKWSDQTGNFGIEAQFVKREGDNILLKRADQRTISIPLEKLSDADQEHLKQEEQKQAME”, the “soluble fraction (log2)” value was -0.138.

For the sequence “HMPPHGHIVELLPEQDFGRIETGDGRLVYFHRNSVLDGDFAQLAVGDAVRFAEEMGERGPQASSVHVE”, the “soluble fraction (log2)” value came out at 0.0967.

Take “HMGLLGTDISAETMIGYFKKIDLGFDEETQEVIVPSWRQDLLRDADIAEEVARFYGYDNIPTTLPSGEST”: the “soluble fraction (log2)” value was -0.122.

As to “HMTSPELIELGERIRKRRQEMNLSQEALAEKAGISINTVSRVEGGQTAMSIEIFRKMIEILETDANGL”, the “soluble fraction (log2)” value is -0.212.

As for “HMRESLSEAERHPRYLEGEDVVRMFLLMGDLSRVEAEVIALQWNAQEADRVGLPQDAKVFRTRAR”, the “soluble fraction (log2)” value is -0.511.

In the case of “HMTIGPALAIGGNKVEMTQQGKIQVTNPQGKIKTLSQDEFKKQLVKNADKIEAGQDFEFKKD”, the “soluble fraction (log2)” value worked out at 0.263.

In the case of “HMQNPDHLLALAAAAQAAIELGRPDEAEAYYRHLVEVYGVEMASQKPEYLDHSGITNDLRNVAEGFLVG”, the “soluble fraction (log2)” value was -0.746.

In the case of “HMESYTGLAVTEDDDGWSNVRSGNSTSYSILFKIYAGEKFNILSNDGKWSYIDFNGRKGYIHNSIIRKY”, the “soluble fraction (log2)” value was -3.87.

“HMQVSIGERVKLARMSAGLNQRQLGKEMGMSAMAISKYETGEVVPNSRVLIQLSQTLHVPLDFFFRS”: the “soluble fraction (log2)” value was -2.69.

With “HMDKLNKELVSRMMDDAAWKELSKDFPWTEQLLEKYMNYVDWKEISRNYNVVWTKSLLEKFKHRLDWHE”, the “soluble fraction (log2)” value was -1.44.

For the sequence “HMREIDIWVAEDADSQRIDKYLSMVVEDLSRSRIASLIEGGSILVNGEVIRAKYKVKPADHITAAFEDEM”, the “soluble fraction (log2)” value is -0.72.

For “HMQSYSYYDFQKALQNKTVESVIIEPDKTVPTGTLQIQLKGDTKEELNVSDVTEVEELLQSYDVDYKLRSV”, the “soluble fraction (log2)” value is 0.131.

In the case of “HMNDLKVGELAKRGNVTAETVRHYTREGLLSPTRHPDNGYQLFSATDLERLHFIQRARKLGFSVAEIRDIL”, the “soluble fraction (log2)” value is -0.619.

As for “HMKRYLFEEVLAFLKHNDGKSFNYKQLGAAMEIDNESDRFALLETLEELKHQGFVIETDIGKYAAKE”, the “soluble fraction (log2)” value was -0.324.

Regarding “HMLVNNSTIETVIDFANVKFGMELTKDQVSEQLRNLSFSQTLKLINSMKADDNDAFSEIIDL”, the “soluble fraction (log2)” value was -0.672.

As to “HMLVGKSVIMKTNESSSGMIAGKVNYWENIDGKIYLGINGKLYDIADVDTVLDNDYYDKLVN”, the “soluble fraction (log2)” value was -0.347.

For the sequence “HMIIIPKKDYDVSQLDNLVSWLKDRGLEVHISRGENLTVIGLIGDTSKIDIDLIRSLDVVEEVKRIQ”, the “soluble fraction (log2)” value was -0.326.

Regarding “HMSDAKKRAFSKDEILYSLKNRPFTSFDIESLFDDESKKTFIGLLDKGEISEKKVAGTIFYYLR”, the “soluble fraction (log2)” value was -0.0659.

With “HMPRDYYAVLEVSVSSTPVQIRQAYQRLARRYSPDVNFLDRDTEALFEEIVEAYRVLSNPTARTLYDRG”, the “soluble fraction (log2)” value was -4.48.

As for “HMATYTPYDKQGAKLWRVTAYLGMDSVTGKQRNMKKGGFKTKKEAQLYYNQVKLDFENGTLDQ”, the “soluble fraction (log2)” value is -1.22.

“HMEELNFYPNPAYKYINLDYVGLKEIYTVLGKKLLETYDTRINISNLNSGIYLIKFKNQALRFVK”: the “soluble fraction (log2)” value is -0.0334.

Take “HMKTAAKVLGESGGKPVTVQSGRYGPYVQLGTIRATLPKDLDQEAVTLDKALELIDAKAERSGK”: the “soluble fraction (log2)” value worked out at 0.172.

On to “HMSTMNRLPRHEQILKLVRANGFMPIEELARLLDVTPQTIRRDINTLSEENLLRRFHGGAALGPSVE”, for which the “soluble fraction (log2)” value was -0.0842.

Turning to “HMELLEVSVIIREADSTGWSAARQGMEQAAADLGAELRFLTLSQSNSAEEQRSLLAREVEGGADAVVLV”, the “soluble fraction (log2)” value was -0.142.

As to “HMGKDLLGYEVFAESGDLVGILKDVMWLPHSDVYVITKGGKEFLIPVIPEVVKGINHEQGVIVISPMEGLL”, the “soluble fraction (log2)” value is -0.0165.

Turning to “HMGQQPPVTEIYKNHDGNKDGLLEAGEVTGSRYARQFPRWDVNGDQKVSPQEVIAFRKRFGIAADGTLL”, the “soluble fraction (log2)” value is -0.0225.

Regarding “HMRDLLPHFQRELQFLQTHRNEFAAAYPELGGRLATASDLLDDPHVERMVQSFALLAARVHKRLDDDF”, the “soluble fraction (log2)” value came to 0.206.

For the sequence “HMKPRISMITLGVKDLNKSIEFYGGGLGFPRKKTEPEIAIFKLNGSWLSLYNRGLLAEDANVS”, the “soluble fraction (log2)” value is -0.0946.

Regarding “HMLPADETEARVLNVLGSEPLHVDEIRNQADLPIEKISATLAMMELKGMVRQVGGMNYVAMR”, the “soluble fraction (log2)” value worked out at 0.0898.

For the sequence “HMGVGTTDERLAVLNQIASRQTEALEKLGPNNPLVGLGQIRNTLSKMLEISGYPDSNQFFKQVPLDYEPPP”, the “soluble fraction (log2)” value is 0.173.

As to “HMERAYGVRVSLRLDDPFRTLLGADWSRTHWFASAEERDAALLEMSRKHEFSRPGDQPALVYEKVQN”, the “soluble fraction (log2)” value was -0.728.

For the sequence “HMEEPEYELLRQAVLALPEKYRLPIHLYYYEEYSVREIAEILQRKESAVQTQLQRGREKIRRSLTEKGVS”, the “soluble fraction (log2)” value is -0.77.

On to “HMVTARMPDLFGLDEATAQRMVSNAGLTLKTEYAYSDQAEGYVFDQTPEANAEVRRGGTVTAMIS”, for which the “soluble fraction (log2)” value came out at 0.0381.

For “HMTMMTFGEKLQNARKGAGLSQEQLAEKLSVSRSAVAKWENDNGMPDIDNLKAIAQLLDVSIDYLLEN”, the “soluble fraction (log2)” value was determined as 0.133.

Take “HMRGPTIELLIQKSALYEELDDSENALKEILKAFDRDSLNSDVLNRLVNLLLNDKQIDRAENYNQLLIEK”: the “soluble fraction (log2)” value is -0.32.

In the case of “HMQFAEIPNFSEMALQILRLQADGLSITKIAEALHMNPRTVKYHAQENYRKLQASNKSEALLAARNLNL”, the “soluble fraction (log2)” value is -1.3.

Consider “HMVDGAHKQQAAVQALTPALKVLAAAPEGKKGQAIQALRAVLKQHGRWLDDATAQQVHEQLLAAGDAQGWQ”, for which the “soluble fraction (log2)” value turned out to be 0.297.
